Results on eight molecules are retold here after patent US20210024646A1 (published 2021).

Values joined by “and” are separate entries in the source; they are usually repeats but may differ in a detail not shown here. Equal entries are not always repeated.

Assay [1] has as its target T1, extracellular domain of human CD73 protein (CD73-ECD), C-terminus polyhistidine-tagged (UniProt P21589 27-547).
T1 chain: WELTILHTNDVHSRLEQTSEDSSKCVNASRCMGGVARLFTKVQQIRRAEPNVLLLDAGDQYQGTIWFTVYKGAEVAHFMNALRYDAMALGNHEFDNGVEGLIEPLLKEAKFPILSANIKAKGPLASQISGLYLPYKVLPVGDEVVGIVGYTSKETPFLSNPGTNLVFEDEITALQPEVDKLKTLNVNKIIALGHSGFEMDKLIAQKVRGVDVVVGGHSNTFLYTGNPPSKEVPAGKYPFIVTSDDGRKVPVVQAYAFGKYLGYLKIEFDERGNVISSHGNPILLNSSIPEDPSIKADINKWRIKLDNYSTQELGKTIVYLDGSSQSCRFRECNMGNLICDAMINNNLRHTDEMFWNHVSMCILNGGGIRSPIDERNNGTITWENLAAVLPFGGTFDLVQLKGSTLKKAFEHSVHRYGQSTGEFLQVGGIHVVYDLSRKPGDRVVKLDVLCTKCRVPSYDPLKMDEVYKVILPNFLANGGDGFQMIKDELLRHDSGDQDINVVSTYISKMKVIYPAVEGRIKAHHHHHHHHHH
Nature of the assay: ELISA.

Assay [2] concerns the target T2, CD73 on the surface of human tumor cells (human, UniProt P21589 27-549).
T2 chain: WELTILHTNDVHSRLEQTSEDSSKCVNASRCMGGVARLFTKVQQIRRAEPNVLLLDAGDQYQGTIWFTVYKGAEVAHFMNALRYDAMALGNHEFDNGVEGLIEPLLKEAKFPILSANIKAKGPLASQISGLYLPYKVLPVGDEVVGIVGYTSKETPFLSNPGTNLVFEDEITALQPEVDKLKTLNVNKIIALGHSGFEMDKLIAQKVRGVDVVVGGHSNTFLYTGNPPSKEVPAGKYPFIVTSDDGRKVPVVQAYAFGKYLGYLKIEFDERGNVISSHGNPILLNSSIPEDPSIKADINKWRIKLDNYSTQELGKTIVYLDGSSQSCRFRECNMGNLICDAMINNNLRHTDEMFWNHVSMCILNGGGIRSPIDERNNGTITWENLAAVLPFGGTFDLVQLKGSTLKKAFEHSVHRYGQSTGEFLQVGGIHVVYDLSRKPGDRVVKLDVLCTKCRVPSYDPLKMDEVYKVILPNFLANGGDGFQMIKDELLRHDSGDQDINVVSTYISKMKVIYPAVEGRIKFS
Nature of the assay: inhibition of cell-surface CD73 enzyme activity; left panel.

Assay [3] has as its target T2, CD73 on the surface of human tumor cells. Kind of assay: FACS; MDA-MB-231 cells, right table.
The target is the same in assay [4]. Kind of assay: FACS; MDA-MB-231 cells, left table. For orientation: A flow cytometer gives signals particle by particle.
The target in assay [5] is T3, Carbon-terminal polyhistidine-labeled recombinant cynomolgus monkey CD73 enzyme (cynomolgus monkey, UniProt A0A2K5V5U7 1-547).
T3 chain: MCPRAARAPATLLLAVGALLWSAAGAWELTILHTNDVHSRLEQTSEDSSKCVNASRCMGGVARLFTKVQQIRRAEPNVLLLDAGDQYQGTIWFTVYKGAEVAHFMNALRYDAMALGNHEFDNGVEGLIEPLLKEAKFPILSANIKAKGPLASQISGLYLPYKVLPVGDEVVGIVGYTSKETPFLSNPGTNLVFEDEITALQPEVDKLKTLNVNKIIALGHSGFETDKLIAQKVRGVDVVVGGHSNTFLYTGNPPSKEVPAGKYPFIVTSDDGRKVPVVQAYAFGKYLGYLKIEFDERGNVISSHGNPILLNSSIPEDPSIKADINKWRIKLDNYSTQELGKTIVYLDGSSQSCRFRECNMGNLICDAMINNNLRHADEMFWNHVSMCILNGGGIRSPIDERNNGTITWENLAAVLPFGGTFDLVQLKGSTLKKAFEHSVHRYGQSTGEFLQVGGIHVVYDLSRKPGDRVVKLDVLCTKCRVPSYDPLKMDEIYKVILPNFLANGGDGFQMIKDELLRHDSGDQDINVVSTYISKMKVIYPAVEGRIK
Kind of assay: enzyme inhibition; left table.

The target of assay [6] is T3, Carbon-terminal polyhistidine-labeled …. Kind of assay: enzyme inhibition; right table.
Assay [7] addresses T2, CD73 on the surface of human tumor cells. Kind of assay: inhibition of cell-surface CD73 enzyme activity; right panel.
The target is the same in assay [8]. Nature of the assay: FACS; NCI-H1299 cells, right table.
Assay [9] shares this target. Kind of assay: FACS; NCI-H1299 cells, left table.
Assay [10] concerns the target T1, extracellular domain of human CD73 …. Nature of the assay: enzyme inhibition; right table.
Assay [11] concerns the target T2, CD73 on the surface of human tumor cells. Nature of the assay: FACS; NCI-H1299 cells, right table.
Assay [12] shares this target. Nature of the assay: FACS; MDA-MB-231 cells, right table.
In assay [13] the target is T1, extracellular domain of human CD73 …. Kind of assay: enzyme inhibition; left table.
Assay [14] deals with T2, CD73 on the surface of human tumor cells. Kind of assay: FACS; MDA-MB-231 cells, left table.
The target is the same in assay [15]. Kind of assay: FACS; NCI-H1299 cells, left table.

B1: mAb002c-VH-QG/VK-SG (antibody, V domains shown)
VH: QVQLQQPGAELVKPGASVRLSCKASGYTLTSYWMHWVKKRPGQGLEWIGEINPSQGRSNYNEKFKSKATLTVDRSSSTVYMQLGSLTSEDSAVYYCARRGVSGNYFDYWGQGTTLTVSS
VL: DIKMTQSPSSMYASLGERVTMTCKASQDINTYLSWFQQKPGKSPKTLIYRSNILVSGVPSRFSGSRSGQDYYLTITSLEYEDMGIYYCLQYDEFPYTFGGGTKLELK
B1: the EC50 was 0.096 nM and 0.103 nM in assay [1]; 0.557 nM in [3]; 0.557 nM in [4]; 0.573 nM in assay [8]; 0.73 nM in assay [9]. The IC50 in assay [2] amounted to 0.448 nM; in assay [5], 0.044 nM; in assay [6], 0.055 nM; in assay [7], 0.429 nM.

B2: Hu002c-11 (antibody, V domains shown)
VH: QVQLVQSGAEVKKPGASVKVSCKASGYTLTSYWMHWVRQAPGQGLEWIGEINPSQGRSNYNEKFKSKVTLTVDRSTSTVYMELSSLRSEDTAVYYCARRGVSGNYFDYWGQGTLVTVSS
VL: DIQMTQSPSSLSASVGDRVTITCKASQDINTYLSWFQQKPGKSPKSLIYRSNILVSGVPSRFSGSGSGQDYTLTISSLQPEDFATYYCLQYDEFPYTFGGGTKLEIK
With B2, the EC50 was 0.095 nM in assay [1], 0.693 nM in [3] and 0.774 nM in assay [8]. Moreover, the IC50 worked out at 0.06 nM in [10], 0.065 nM in assay [6] and 0.445 nM in assay [7].

B3: Hu001c-31 (antibody, V domains shown)
VH: QVQLVQSGAEVKKPGASVKVSCKASGYTFTNYYIYWVRQAPGQRLEWIGWIYPGNLNIKYNEKFKGRSTLTADKSASTAYMELSSLRSEDTAVYYCARDDNYAWFAYWGQGTLVTVSS
VL: DIQMTQSPSSLSASVGDRVTITCKASQDVSTAVAWYQQKPGKAPKLLIYWTNTRHTGVPSRFSGSGSGTDHTLTISSLQPEDFATYYCQQHYSTPFTFGQGTKLEIK
Turning to B3, the figures for the EC50 in assay [1], in [11] and in assay [12] were 0.109 nM, 1.24 nM and 0.514 nM, respectively. The IC50 in [10] amounted to 0.12 nM; in assay [6], 0.28 nM.

B4: Hu001c-22 (antibody, V domains shown)
VH: QVQLVQSGAEVKKPGASVKVSCKASGYTFTNYYIYWVKQRPGQRLEWIGWIYPGNLNIKYNEKFKGRVTITADKSASTAYMELSSLRSEDTAVYYCARDDNYAWFAYWGQGTLVTVSS
VL: DIQMTQSPSSLSASVGDRVTITCKASQDVSTAVAWYQQKPGKAPKLLIYWTNTRHTGVPSRFSGSGSGTDHTLTISSLQPEDFATYYCQQHYSTPFTFGQGTKLEIK
On to B4, for which the values for the EC50 in assay [1], in assay [14] and in assay [15] were 0.032 nM, 0.522 nM and 1.42 nM, respectively. In addition, the IC50 in assay [13] is 0.03 nM; in assay [5], 0.08 nM.

B5: Hu001c-24 (antibody, V domains shown)
VH: QVQLVQSGAEVKKPGASVKVSCKTSGYTFTNYYIYWVKQRPGQGLEWIGWIYPGNLNIKYNEKFKGRVTITADKSASTAYMELSSLRSEDTAVYYCARDDNYAWFAYWGQGTLVTVSS
VL: DIQMTQSPSSLSASVGDRVTITCKASQDVSTAVAWYQQKPGKAPKLLIYWTNTRHTGVPSRFSGSGSGTDHTLTISSLQPEDFATYYCQQHYSTPFTFGQGTKLEIK
As for B5, the EC50 in assay [1] was 0.026 nM; in assay [14] it was 0.432 nM; in assay [15], 1.28 nM. Moreover, the IC50 is 0.02 nM in assay [13], 0.04 nM in [5], 0.03 nM in [10] and 0.04 nM in assay [6].

B6: Hu001c-21 (antibody, V domains shown)
VH: QVQLVQSGAEVKKPGASVKVSCKASGYTFTNYYIYWVRQAPGQRLEWIGWIYPGNLNIKYNEKFKGRVTITADKSASTAYMELSSLRSEDTAVYYCARDDNYAWFAYWGQGTLVTVSS
VL: DIQMTQSPSSLSASVGDRVTITCKASQDVSTAVAWYQQKPGKAPKLLIYWTNTRHTGVPSRFSGSGSGTDHTLTISSLQPEDFATYYCQQHYSTPFTFGQGTKLEIK
As to B6, the EC50 in [1] worked out at 0.02 nM; in [14] it was 0.205 nM. The IC50 in [13] stood at 0.12 nM; in assay [5], 0.37 nM.

B7: Hu001c-25 (antibody, V domains shown)
VH: QVQLVQSGAEVKKPGASVKVSCKASGYTFTNYYIYWVRQAPGQRLEWIGWIYPGNLNIKYNEKFKGRVTITADKSASTAYMELSSLRSEDTAVYYCARDDNYAWFAYWGQGTLVTVSS
VL: DIQMTQSPSSLSASVGDRVTITCKASQDVSTAVAWYQQKPGKSPKLLIYWTNTRHTGVPSRFSGSGSGTDHTLTISSLQPEDFATYYCQQHYSTPFTFGQGTKLEIK
Turning to B7, the figures for the EC50 in assay [1] and in assay [14] were 0.033 nM and 0.435 nM, respectively. Moreover, the IC50 in assay [13] was 0.3 nM; in [5], 0.34 nM.

B8: Hu001c-28 (antibody, V domains shown)
VH: QVQLVQSGAEVKKPGASVKVSCKTSGYTFTNYYIYWVKQRPGQGLEWIGWIYPGNLNIKYNEKFKGRVTITADKSASTAYMELSSLRSEDTAVYYCARDDNYAWFAYWGQGTLVTVSS
VL: DIQMTQSPSSLSASVGDRVTITCKASQDVSTAVAWYQQKPGKSPKLLIYWTNTRHTGVPSRFSGSGSGTDHTLTISSLQPEDFATYYCQQHYSTPFTFGQGTKLEIK
With B8, the EC50 turned out to be 0.037 nM in [1], 0.446 nM in [14] and 1.41 nM in assay [15]. The IC50 in [13] and in assay [5] was 0.03 nM in each case.

For orientation: EC50 means the concentration at which the effect is half-maximal. In general, IC50 refers to the concentration that inhibits the measured activity by half.
